Data: patent publication US20240218070A1 (MERUS N V, published 2024)

T1: huFAP-His recombinant protein (R&D Systems cat. #3715-SE) (human, UniProt Q12884 26-760)
T1 construct: Bought His-tagged recombinant protein; also called huFAP protein; human FAP (R&D, cat. No. 3715-SE)
T1 sequence: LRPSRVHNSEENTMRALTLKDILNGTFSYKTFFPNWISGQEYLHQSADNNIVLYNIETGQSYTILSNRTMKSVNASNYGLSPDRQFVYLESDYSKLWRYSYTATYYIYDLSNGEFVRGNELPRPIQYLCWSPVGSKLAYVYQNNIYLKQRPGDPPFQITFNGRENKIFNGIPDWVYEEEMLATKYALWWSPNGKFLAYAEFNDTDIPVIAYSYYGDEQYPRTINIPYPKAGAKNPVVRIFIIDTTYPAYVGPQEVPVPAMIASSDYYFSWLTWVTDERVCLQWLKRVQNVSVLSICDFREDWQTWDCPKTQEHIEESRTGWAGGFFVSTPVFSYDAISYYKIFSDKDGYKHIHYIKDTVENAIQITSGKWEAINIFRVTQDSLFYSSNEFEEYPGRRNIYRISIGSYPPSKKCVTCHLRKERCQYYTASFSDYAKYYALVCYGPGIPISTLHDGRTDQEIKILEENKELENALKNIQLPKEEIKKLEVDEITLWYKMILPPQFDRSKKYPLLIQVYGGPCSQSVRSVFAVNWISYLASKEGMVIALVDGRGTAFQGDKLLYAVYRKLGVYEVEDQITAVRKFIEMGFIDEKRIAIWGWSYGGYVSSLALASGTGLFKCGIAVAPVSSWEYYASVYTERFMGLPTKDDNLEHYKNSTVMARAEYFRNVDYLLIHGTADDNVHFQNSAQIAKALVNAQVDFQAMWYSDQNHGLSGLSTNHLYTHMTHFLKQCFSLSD


What was measured:
[1] = molecular target: human CD26 (huCD26) expressed on 293FF cells (human, UniProt P27487 1-766); assay: FACS, 293FF cells transiently transfected with huCD26
Sequence of human CD26 (huCD26) expressed on 293FF cells (P27487 whole entry): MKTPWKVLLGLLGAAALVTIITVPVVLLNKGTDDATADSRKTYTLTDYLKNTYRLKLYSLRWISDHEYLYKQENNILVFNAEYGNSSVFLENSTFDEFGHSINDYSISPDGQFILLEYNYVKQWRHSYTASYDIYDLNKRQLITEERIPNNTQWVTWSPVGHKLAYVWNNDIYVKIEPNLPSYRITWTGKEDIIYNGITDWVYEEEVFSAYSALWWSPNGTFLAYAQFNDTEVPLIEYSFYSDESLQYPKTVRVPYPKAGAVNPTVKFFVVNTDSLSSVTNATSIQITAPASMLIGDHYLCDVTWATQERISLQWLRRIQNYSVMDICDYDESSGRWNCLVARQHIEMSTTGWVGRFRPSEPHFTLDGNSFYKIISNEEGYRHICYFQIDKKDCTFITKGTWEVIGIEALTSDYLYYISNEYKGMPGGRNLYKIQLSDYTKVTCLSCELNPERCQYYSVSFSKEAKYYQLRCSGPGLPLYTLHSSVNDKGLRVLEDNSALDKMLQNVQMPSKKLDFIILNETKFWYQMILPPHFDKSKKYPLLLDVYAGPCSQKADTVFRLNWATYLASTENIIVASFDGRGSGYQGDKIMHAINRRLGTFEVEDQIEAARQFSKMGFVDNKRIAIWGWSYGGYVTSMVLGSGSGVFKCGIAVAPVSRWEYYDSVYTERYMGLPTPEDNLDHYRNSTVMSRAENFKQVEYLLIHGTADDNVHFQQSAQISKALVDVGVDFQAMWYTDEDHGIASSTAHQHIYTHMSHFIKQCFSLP
Description: The binding of all test and control antibodies to the cells was tested at a single concentration of 2.5 ug/ml. Goat-anti-human IgG F(ab)2-PE (Invitrogen, H10104) was used as secondary antibody (1:100 in FACS buffer). Ab0625 was used at 10 ug/ml and its binding was detected using Ab0250 (Becton Dickinson, 550767) (1:100 in FACS buffer). The FACS buffer containing PBS (Gibco, cat. #10010-015), 0.5% BSA (Thermo Scientific, cat. #37525), and 2 mM EDTA (Invitrogen, cat. #15575-020) was kept ice cold throughout the assay.
The target cells were harvested, counted, and centrifuged for 5 min at 300 g at 4 °C. Cells were then resuspended in FACS buffer at a concentration of 1×10⁶ cells/ml and transferred (200,000 cells/well) to a U-bottom 96-well FACS plate (BD, cat. #353910). Cells were then centrifuged for 3 min at 300 g at 4° C. and supernatant was discarded. 50 μl of primary antibody solutions were added to the cells, mixed, and incubated for 30 min at 2-8° C. in the dark. Cells were washed by adding 150 μl FACS buffer and centrifuged for 3 min at 300 g at 4° C. Supernatant was discarded, and cells were washed again by adding 200 μl FACS buffer to the plate. Cells were then centrifuged for 3 min at 300 g at 4° C. and afterwards the supernatant was discarded. 50 μl of secondary antibody solutions were added to the cells, mixed, and incubated for 30 min at 2-8° C. in the dark. Cells were then washed by adding 150 μl FACS buffer to the plate and centrifuged for 3 min at 300 g at 4° ° C. Supernatant was discarded and cells were washed again by adding 200 μl FACS buffer to the plate and centrifuged for 3 min at 300 g at 4° C. Supernatant was discarded and cells were fixated by adding 100 μl/well ice-cold Fixation buffer (2% formaldehyde solution in PBS, Sigma-Aldrich, cat. #47608-250ML-F). Cells were incubated for 15 min on ice in the dark. Afterwards, 100 μl ice-cold PBS was added to the cells and cells were centrifuged for 3 at 300 g at 4° C. Supernatant was discarded and cells were resuspended in 120 μl FACS buffer.

[2] = molecular target: T1, huFAP-His recombinant protein (R&D …); assay: competition ELISA, huFAP-His coated, IgG at 0.05 ug/ml; competitor sibrotuzumab analog Fab
Description: ELISA was used to investigate the competitive binding of the human anti-FAP antibody panel with Fab fragments generated from the sibrotuzumab analog to huFAP-His protein (R&D Systems cat. #3715-SE).
The huFAP-His protein was coated (0.5 ug/ml, 50 μl/well) on two 96-wells ELISA plates (Certified Nunc-Immuno Maxisorp F96, Greiner Bio-One, cat. #655061). The plates were sealed (EASYseal, Greiner, cat. #676001) and incubated overnight at 4° ° C. The plates were washed with PBS/0.05% Tween 20 (PBS, Gibco, cat. #10010-015) (Tween 20, Merck, cat. #8.22184.0500) using the ELISA plate washer (BioTek 405 TS). Afterwards, the plates were emptied. Fab fragments of sibrotuzumab analog (25 ug/ml) were incubated on one plate for 30 min at RT, whereas the second plate was incubated with 300 μl/well PBS/2% BSA block buffer (BSA, Sigma, cat. #A3294-500 g) for 1 hour at RT. Afterwards, the plates were emptied. Antibodies from the human anti-FAP panel (0.05 ug/ml, 50 μl/well) were added, plates were covered with a EASYseal, and incubated for one hour at RT. The plates were washed three times with wash buffer using the ELISA washer and emptied. […] The plates were then washed three times with wash buffer using the ELISA washer and emptied. BD OptEIATMB Substrate Reagent Set (BD, cat. #555214) was then added to the wells (50 μl/well) and developed for maximal 10 min. Afterwards, 1 M H2SO4 (50 μl/well) was added to the wells to stop the staining reaction (color changes from blue to yellow). The plates were then measured using an ELISA plate reader (BioTek ELx808).

Binder | binding result [1] | binding result [2]
anti-human FAP bivalent monospecific IgG comprising heavy chain variable region SEQ ID NO: 15 (antibody, V domains shown, IgG1 format, common light chain VK1-39/JK1) VH: QLQLQESGPGLVKPSETLSLTCTVSGGSISSSSYFWAWIRQPPGKGLEFIGNIYYSGSTYYNPSLKSRVTISVDTSKNQFSLKLSSVTAADTAVYYCARPSYYGSGNYYFAFWGQGTLVTVSS VL: not shown | no binding (tested: 2.5 ug/ml) | binds
anti-human FAP bivalent monospecific IgG comprising heavy chain variable region SEQ ID NO: 69 (antibody, V domains shown, IgG1 format, common light chain VK1-39/JK1; also called human/mouse cross-reactive FAP IgG) VH: EVQLVETGGGLIQPGGSLRLSCAASGFTVSSNYMSWVRQAPGKGLEWVSVIYSGGSTYYADSVKGRFTISRDNSKNTLYLQMNSLRAEDTAVYYCARGPTDAYPYLDYLWGQGTLVTVSS VL: not shown | no binding (tested: 2.5 ug/ml) | 
anti-human FAP bivalent monospecific IgG comprising heavy chain variable region SEQ ID NO: 11 (antibody, V domains shown, IgG1 format, common light chain VK1-39/JK1) VH: EVQLVESGGGLVQPGGSLRLSCAASGFTFSSYAMIWVRQAPGKGLEWVSAISGSGGYTFNADSVKGRFTMSRDNSKNTLYLQMNSLRAEDTAVYYCAKRDGGYEGGAFDIWGQGTLVTVSS VL: not shown | no binding (tested: 2.5 ug/ml) | binds
anti-human FAP bivalent monospecific IgG comprising heavy chain variable region SEQ ID NO: 19 (antibody, V domains shown, IgG1 format, common light chain VK1-39/JK1) VH: EVQLVESGGGLVKPGGSLRLSCAASGFPFNYAWMSWVRQAPGKGLEWVGRIKPKTSGGATDYAAPVKDRFTISRDDSRNTLYLQMNSLKTEDTAVYYCSAREDIWNFFFDLWGQGTLVTVSS VL: not shown | no binding (tested: 2.5 ug/ml) | binds
